Series [1] deals with T1, NONO in NONO/SFPQ heterodimer;SFPQ in NONO/SFPQ heterodimer (human;human?, UniProt Q15233;P23246 53-312;276-535, |).
T1 sequence 1: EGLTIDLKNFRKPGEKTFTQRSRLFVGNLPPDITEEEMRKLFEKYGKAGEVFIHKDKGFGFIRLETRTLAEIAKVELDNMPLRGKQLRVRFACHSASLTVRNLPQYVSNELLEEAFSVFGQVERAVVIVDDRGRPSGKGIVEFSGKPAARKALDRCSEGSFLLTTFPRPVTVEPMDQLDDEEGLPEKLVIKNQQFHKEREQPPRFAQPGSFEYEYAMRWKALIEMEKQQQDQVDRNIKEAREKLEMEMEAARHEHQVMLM
T1 sequence 2: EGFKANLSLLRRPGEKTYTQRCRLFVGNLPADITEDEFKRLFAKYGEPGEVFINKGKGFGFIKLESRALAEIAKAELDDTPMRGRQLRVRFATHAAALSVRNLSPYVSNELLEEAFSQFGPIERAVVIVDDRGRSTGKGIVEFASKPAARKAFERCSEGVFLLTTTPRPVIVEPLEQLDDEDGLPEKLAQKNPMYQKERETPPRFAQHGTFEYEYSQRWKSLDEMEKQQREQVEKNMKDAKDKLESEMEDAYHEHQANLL
As to the kind of experiment: MST.

The target of a further series is T2, NONO homodimer (human, UniProt Q15233 53-312).
T2 sequence: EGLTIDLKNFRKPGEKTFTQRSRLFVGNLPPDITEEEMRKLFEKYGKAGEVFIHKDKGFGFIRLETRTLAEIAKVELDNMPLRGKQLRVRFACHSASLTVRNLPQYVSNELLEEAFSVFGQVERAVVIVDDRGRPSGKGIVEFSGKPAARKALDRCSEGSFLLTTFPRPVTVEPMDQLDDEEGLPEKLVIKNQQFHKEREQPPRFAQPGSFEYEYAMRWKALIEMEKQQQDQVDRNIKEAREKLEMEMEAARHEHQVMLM
Kind of series: MST.

B1: GU-rich RNA oligo 1 (ssRNA)
RNA: TGUGUGUGGCCGU
modifications: 5' residue printed as T
Turning to B1, the binding result (in series [1]; with NONO homodimer) was “binds” in each case.

B2: GU-rich RNA oligo 2 (ssRNA)
RNA: TUGUGCCGUCU
modifications: 5' residue printed as T
Take B2: the binding result (in series [1]; with NONO homodimer) was “binds” each time.

These data come from PMC12918760.
